Source: patent US20040170614A1

Legend:
Test in all cases: cell-based or functional assay
hmCD40ΔT6 (human; mouse) = hmCD40ΔT6 (human; mouse) (UniProt P25942)
[1] = target: human-mouse hybrid CD40 (hmCD40) (human; mouse) (UniProt P25942)
[2] = target: mouse CD40 (mCD40) (mouse) (UniProt P27512)
Chain of UniProt P27512 (P27512 20-289): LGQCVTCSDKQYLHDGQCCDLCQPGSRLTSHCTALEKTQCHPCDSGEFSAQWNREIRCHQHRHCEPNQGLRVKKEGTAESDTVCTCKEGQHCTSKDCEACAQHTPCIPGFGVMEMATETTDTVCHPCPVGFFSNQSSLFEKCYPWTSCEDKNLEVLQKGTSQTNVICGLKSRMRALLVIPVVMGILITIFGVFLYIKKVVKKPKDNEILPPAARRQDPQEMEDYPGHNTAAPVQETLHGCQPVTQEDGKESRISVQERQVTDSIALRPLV

IgM secretion (Pfc), CH12.LX+hmCD40ΔT6 cells (hmCD40ΔT6 (human; mouse)) [Pfc]	IgM secretion (Pfc), CH12.T2-/-+hmCD40ΔT6 cells (hmCD40ΔT6 (human; mouse)) [Pfc]	IgM secretion (Pfc), CH12.LX+hmCD40 cells [1] [Pfc]	IgM secretion (Pfc), CH12.T2-/-+hmCD40 cells [1] [Pfc]	IgM secretion (Pfc), CH12.LX+hmCD40 cells [2] [Pfc]	IgM secretion (Pfc), CH12.LX+hmCD40ΔT6 cells [2] [Pfc]	IgM secretion (Pfc), CH12.T2-/-+hmCD40 cells [2] [Pfc]	IgM secretion (Pfc), CH12.T2-/-+hmCD40ΔT6 cells [2] [Pfc]	Substance
187000	34000	430000	376000					anti-hCD40 mAb G28-5 (antibody)
				431000	378000	399000	340000	anti-mCD40 mAb 1C10 (antibody)
